Source: PMC7054835, “MyD88 Death-Domain Oligomerization Determines Myddosome Architecture: Implications for Toll-like Receptor Signaling” (Structure(London, England:1993), 2020)

Molecular target: the molecule itself
Test: AUC; sedimentation velocity (30,000 rev/min) and sedimentation equilibrium (3200 and 4200 rev/min, 250 and 280 nm) of hMyD88^DD alone, 35 uM, 293 K, 20 mM Tris, 20 mM NaCl, pH 8.0, 5% glycerol

B1: human MyD88 death domain construct (N-terminal death and intermediate domains of hMyD88, 1-151) (domain or fragment, UniProt Q99836 1-151, looked up)
chain: MAAGGPGAGSAAPVSSTSSLPLAALNMRVRRRLSLFLNVRTQVAADWTALAEEMDFEYLEIRQLETQADPTGRLLDAWQGRPGASVGRLLELLTKLGRDDVLLELGPSIEEDCQKYILKQQQEEAEKPLQVAAVDSSVPRTAELAGITTLD
notes: Myeloid differentiation primary response 88 (MyD88), human, residues 1-151: death domain plus a 30-residue segment of the intermediate domain; printed monomer mass 17.5 kDa; Forms open-ended helical filaments of several hundred subunits at 35 uM and above; The model in the map holds 103 residues per subunit and ends at Q121; also called hMyD88^DD; MyD88^DD; source: E. coli BL21 DE3 Rosetta 2, …
**Q.** Does B1 bind?
**A.** Result: binds
